Data from US20230272113A1.

Biological target: human FLT3 on transfected CHO cells (human) (UniProt P36888)
Assay: FACS, scFv on CHO-human FLT3 cells pre-incubated with FLT3 ligand (competitor)

B1: FL-57 (scFv)
scFv: QVTLKESGPTLVKPTETLTLTCTFSGFSLRYARMGVSWIRQPPGKALEWLAHISSNDEKSFSTALESRLTISTDTSKSQMVLTMTNVDPVDTATYYCARMPGDSNTWRGFFDYWGQGTLVTVSSGGGGSGGGGSGGGGSEIVMTQSPGTLSLSPGERATLSCRTSQTVTNSYIAWYQQRPGQAPRLLIYGTSTRATGIPDRFSGSGSGTDFTLTISRLEPEDFAVYYCQKYGSSPLTFGGGTKLEIK
Work on B1 yielded a median [+ligand]/median [w/o ligand]*100 of over 75%.

B2: FL-56 (scFv)
scFv: QVTLKESGPVLVKPTETLTLTCTVSGFSLRNVRMGVSWIRQPPGKALEWLAHIFSNDEKLYTTSLKSRLTISKDTSKSQVVLTMTNMDPEDTATYYCARIVGYGTGWYGYFDYWGQGTQVTVSSGGGGSGGGGSGGGGSDIQMTQSPSSLSASIGDRVTITCRASQDIRDDLGWYQREPGKAPKRLIYATSIRQSGVPSRFSGSGSGTEFTLTISGLQPEDFATYFCLQHHSFPLTFGGGTKVDIK
With B2 the median [+ligand]/median [w/o ligand]*100 was over 75%.

B3: FL-59 (scFv)
scFv: QVTLKESGPMLVKPTETLTLTCTVSGFSLRNVRMGVSWIRQPPGKALEWLAHIFSNDEKSYSTSLKSRLTISKDTSKSQVVLTLTNMDPVDTATYFCARMPEYSSGWSGAFDIWGQGTMVTVSSGGGGSGGGGSGGGGSDIQMTQSPSSLSASVGDRVTITCRASQDIRDDLGWYQQKPGNAPKRLIYGASTLQSGVPSRFSGSGSGTEFTLTISSLQPEDFATYYCLQHNSYPLTFGGGTRLEIK
B3 was tested, and the median [+ligand]/median [w/o ligand]*100 was over 75%.

B4: FL-50 (scFv)
scFv: QVTLKESGPTLVKPTETLTLTCTVSGFSLSNARMGVSWIRQPPGKCLEWLAHIFSNDEKSYSTSLKSRLTISKDTSKSQVVLTMTNMDPVDTATYYCARIPGYGGNFYYHYYGMDVWGQGTTVTVSSGGGGSGGGGSGGGGSDIQMTQSPSSLSASVGDRVTITCRASQGIRNDLAWYQQKPGKAPKRLIYAASTVQSGVPSRFSGSGSGTEFALTISSLQPEDFATYYCLQHNSFPWTFGCGTKVDIK
B4 was tested, and the median [+ligand]/median [w/o ligand]*100 was over 75%.

B5: FL-54 (scFv)
scFv: QVQLVESGGGVVQPGRSLRLSCAASGFTFSSYGMHWVRQAPGKCLEWVAVISYDGSNEFYADSVKGRFTISRDNSKNTLYLQMNSLRAEDTAVYYCARGGEITMVRGVIGYYYYGMDVWGQGTTVTVSSGGGGSGGGGSGGGGSEIVMTQSPATLSVSPGERATLSCRASQGVRNNLVWYQQKPGQAPRLLIYGASTRATGIPARFSGSGSGTEFTLTISSLQSEDFATYYCLQHNSYPLTFGCGTKVEIK
B5 gave a median [+ligand]/median [w/o ligand]*100 of over 75%.

B6: FL-62 (scFv)
scFv: QVQLVESGGGVVQPGRSLRLSCAASGFTFSSYGMHWVRQAPGKGLEWVAVISYDGSNEFYADSVKGRFTISRDNSKNTLYLQMNSLRAEDTAVYYCARGGEITMVRGVIGYYYYGMDVWGQGTTVTVSSGGGGSGGGGSGGGGSEIVMTQSPATLSVSPGERATLSCRASQGVRNNLVWYQQKPGQAPRLLIYGASTRATGIPARFSGSGSGTEFTLTISSLQSEDFATYYCLQHNSYPLTFGGGTKVEIK
Work on B6 yielded a median [+ligand]/median [w/o ligand]*100 of over 75%.

B7: FL-43 (scFv)
scFv: QVTLKESGPVLVKPTETLTLTCTVSGFSFRNARMGVSWIRQPPGKCLEWLAHIFSNDEKSYSTSLKSRLTISKDTSKSQVVLTLTNMDPVDTATYFCARMPEYSSGWSGAFDIWGQGTMVTVSSGGGGSGGGGSGGGGSDIQMTQSPSSLSASVGDRVTITCRASQGIRNDLVWYQQKPGKAPKRLIYGTSTLQSGVPSRFSGSGSGTEFTLTISSLQPEDFATYYCLQHNSYPLTFGCGTKVEIK
In the case of B7, the median [+ligand]/median [w/o ligand]*100 is reported as over 75%.

B8: FL-44 (scFv)
scFv: QVTLKESGPVLVKPTETLTLTCTVSGFSFRNARMGVSWIRQPPGKCLEWLAHIFSNDEKSYSTSLKSRLTISKDTSKSQVVLTLTNMDPVDTATYFCARMPEYSSGWSGAFDIWGQGTMVTVSSGGGGSGGGGSGGGGSDIQMTQSPSSLSASVGDRVTITCRTSQGIRNDLVWYQQKPGKAPKRLIYAASTLQSGVPSRFSGSGSGTEFTLTISSLQPEDFATYFCLQHYSYPLTFGCGTKVEIK
With B8 the median [+ligand]/median [w/o ligand]*100 was over 75%.

B9: FL-52 (scFv)
scFv: QVTLKESGPTLVKPTETLTLTCTFSGFSLRYARMGVSWIRQPPGKCLEWLAHIFSNDEKSYSTSLKSRLTISKDTSKSQVVLTLTNMDPVDTATYFCARMPEYSSGWSGAFDIWGQGTMVTVSSGGGGSGGGGSGGGGSDIQMTQSPSSLSASVGDRVTITCRASQDIRNDLAWYQQKPGKAPKRLIYAASSLQSGVPSRFSGSGSGTEFTLTISSLQPEDFATYYCLQHNSYPLTFGCGTKLEIK
B9 gave a median [+ligand]/median [w/o ligand]*100 of over 75%.

B10: FL-48 (scFv)
scFv: QVTLKESGPMLVKPTETLTLTCTFSGFSLRNARMGVSWIRQPPGKCLEWLAHIFWNDEKSYSTSLKSRLTISKDTSKSQVVLTMTNMDPVDTATYYCARIPYYGSGSYNYGMDVWGQGTTVTVSSGGGGSGGGGSGGGGSDIQMTQSPSSLSASVGDRVTITCRASQGIRNDLGWYQQKPGKAPKRLIYAASSLQSGVPSRFSGSGSGTEFTLTISSLQPEDFATYYCLQHNTYPLTFGCGTKVDIK
B10 gave a median [+ligand]/median [w/o ligand]*100 of over 75%.

B11: FL-53 (scFv)
scFv: QVQLVESGGGVVQPGRSLRLSCAASGFTFSSYGMHWVRQAPGKCLEWVAVISYDGSNEFYADSVKGRFTISRDNSKNTLYLQMNSLRAEDTAVYYCARGGEITMVRGVIGYYYYGMDVWGQGTTVTVSSGGGGSGGGGSGGGGSDIQMTQSPSSLSASVGDRVTITCRTSQSISSYLNWYQQKPGKAPKLLIYAASSLQSGVPSRFSGSGSGTEFTLTISSLQPEDFATYYCLQHNSYPLTFGCGTKVDIK
B11 was tested, and the median [+ligand]/median [w/o ligand]*100 was over 75%.

B12: FL-61 (scFv)
scFv: QVQLVESGGGVVQPGRSLRLSCAASGFTFSSYGMHWVRQAPGKGLEWVAVISYDGSNEFYADSVKGRFTISRDNSKNTLYLQMNSLRAEDTAVYYCARGGEITMVRGVIGYYYYGMDVWGQGTTVTVSSGGGGSGGGGSGGGGSDIQMTQSPSSLSASVGDRVTITCRASQSISSYLNWYQQKPGKAPKLLIYAASSLQSGVPSRFSGSGSGTEFTLTISSLQPEDFATYYCLQHNSYPLTFGGGTKVEIK
Binder B12 has a median [+ligand]/median [w/o ligand]*100 of over 75%.

B13: FL-63 (scFv)
scFv: QVQLVESGGGVVQPGRSLRLSCAASGFTFSSYGMHWVRQAPGKGLEWVAVISYDGSNEFYADSVKGRFTISRDNSKNTLYLQMNSLRAEDTAVYYCARGGEITMVRGVIGYYYYGMDVWGQGTTVTVSSGGGGSGGGGSGGGGSDIQMTQSPSSLSASVGDRVTITCRTSQSISSYLNWYQQKPGKAPKLLIYAASSLQSGVPSRFSGSGSGTEFTLTISSLQPEDFATYYCLQHNSYPLTFGGGTKVDIK
Work on B13 yielded a median [+ligand]/median [w/o ligand]*100 of over 75%.

B14: FL-51 (scFv)
scFv: QVTLKESGPTLVKPTETLTLTCTVSGFSLRNVRMGVSWIRQPPGKCLEWLAHISSNDEKSYSTSLRSRLTISTDTSKSQVVLTMTNMDPVDTATYYCARMPGDSNTWRGFFDYWGQGTLVTVSSGGGGSGGGGSGGGGSEIVMTQSPATLSVSPGERATLSCRTSQSVNNNLAWYQQKPGQAPRLLIYGASTRATGIPARFSGSGSGTEFTLTISSLQPEDFATYYCLQHNSYPLTFGCGTKVEIK
Work on B14 yielded a median [+ligand]/median [w/o ligand]*100 of over 75%.

B15: FL-58 (scFv)
scFv: QVTLKESGPTLVKPTETLTLTCTVSGFSLRNVRMGVSWIRQPPGKALEWLAHISSNDEKSYSTSLRSRLTISTDTSKSQVVLTMTNMDPVDTATYYCARMPGDSNTWRGFFDYWGQGTLVTVSSGGGGSGGGGSGGGGSEIVMTQSPATLSVSPGERATLSCRTSQSVNNNLAWYQQKPGQAPRLLIYGASTRATGIPARFSGSGSGTEFTLTISSLQPEDFATYYCLQHNSYPLTFGGGTKVEIK
Work on B15 yielded a median [+ligand]/median [w/o ligand]*100 of over 75%.

B16: FL-60 (scFv)
scFv: QVTLKESGPALVKPTQTLTLTCTFSGFSLSNARMGVSWIRQPPGKALEWLAHIFSNDEKSYSTSLKSRLTISKDTSKRQVVLTMTNMDPVDTATYYCARMVGYGSGWYAYFDYWGQGTLVTVSSGGGGSGGGGSGGGGSDIVMTQTPLSLSVTPGQPASISCRSSQSLLHSNGYNYLYWYLQKPGQPPQLLIYEVSNRFSGVPDRFSGSGSGTDFTLKISRVEAEDVGVYYCMQALQTPLTFGGGTKVEIK
Binder B16 has a median [+ligand]/median [w/o ligand]*100 of over 75%.

B17: FL-49 (scFv)
scFv: QVTLKESGPTLVKPTETLTLTCTVSGFSLNNARMGVSWIRQPPGKCLEWLAHIFSNDEKSYSTSLKNRLTISKDSSKTQVVLTMTNVDPVDTATYYCARIVGYGTGWFGYFDYWGQGTQVTVSSGGGGSGGGGSGGGGSDIQMTQSPSSLSASVGDRVTITCRASQDIRTDLAWYQQKPGKAPKRLIYAASSLQSGVPSRFSGSGSGTEFTLTISSLQPEDFATYYCLQHNRYPLTFGCGTKVDIK
B17 was tested, and the median [+ligand]/median [w/o ligand]*100 was over 75%.

B18: FL-46 (scFv)
scFv: QVTLKESGPVLVKPTQTLTLTCTFSGFSLSNARMGVSWIRQPPGKCLEWLALIYWNDDKRYSPSLKSRLTITKDTSKNQVVLTMTNMDPVDTATYYCARMVGYGSGWYAYFDYWGQGTLVTVSSGGGGSGGGGSGGGGSDIQMTQSPSSLSASVGDRVTITCRASQGIRNDLGWYQQKPGKAPKRLIYAASSLQSGVPSRFSGSGSGTEFTLTISSLQPEDFATYYCLQHNSYPLTFGCGTKVEIK
For B18, the median [+ligand]/median [w/o ligand]*100 was over 75%.

B19: FL-45 (scFv)
scFv: QVTLKESGPALVKPTQTLTLTCTFSGFSLSNARMGVSWIRQPPGKCLEWLAHIFSNDEKSYRTSLKSRLTISKDTSKSQVVLTMTNMDPVDTATYYCARIVGYGSGWYAYFDYWGQGTLVTVSSGGGGSGGGGSGGGGSDIQMTQSPSSLSASVGDRVTITCRASQGIRNDLGWYQQKPGKAPKRLIYAASSLQSGVPSRFSGSGSGTEFTLTISSLQPEDFATYYCLQHNSYPLTFGCGTKVEIK
For B19, the median [+ligand]/median [w/o ligand]*100 was over 75%.

B20: FL-47 (scFv)
scFv: QVTLKESGPALVKPTQTLTLTCTFSGFSLSNARMGVSWIRQPPGKCLEWLAHIFSNDEKSYSTSLKSRLTISKDTSKSQVVLTMTDMDPEDTATYYCARIVGYGTGWYGFFDYWGQGILVTVSSGGGGSGGGGSGGGGSDIQMTQSPSSLSASVGDRVTITCRTSQGIRNDLGWYQQKPGKAPKRLIYAASSLQSGVPSRFSGSGSGTEFTLTISSLQPEDFATYYCLQHNSYPLTFGCGTKVEIK
With B20 the median [+ligand]/median [w/o ligand]*100 was over 75%.
